In one test the target is sE2 wild-type (UniProt P27958). The test can be described thus: BLI. In general terms: BLI is a label-free optical method that tracks binding on a fibre tip over time.
For the next test, the target named is Wild-type (UniProt P27958). The test can be described thus: BLI.

For orientation: Kd means the free concentration of one partner at which half of the binding sites on the other are occupied at equilibrium, for simple one-to-one binding. Low readings indicate higher affinity, high ones lower affinity. With CBH-4D, the Kd in the test with sE2 wild-type was 8.4 nM.

Consider CBH-4G, for which the equilibrium dissociation constant (Kd) in the test with sE2 wild-type and with Wild-type was 15 nM in each case. HC33.1 came in with a Kd in the test with sE2 wild-type of 9.5 nM. For the substance HC84.1, the Kd with sE2 wild-type was found to be 30 nM.

As for HC84.26.WH.5DL, the Kd with sE2 wild-type and with Wild-type was 4.3 nM each time. In turn, HCV1 showed a Kd with sE2 wild-type of 42 nM. HEPC74 yielded a Kd with sE2 wild-type of 5.1 nM.

(Values after US20220054630A1.)
